{
  "source": "patent US9688764B2",
  "about": "“Methods of treating breast cancer by administering anti-human prolactin receptor (PRLR) antibodies” (REGENERON PHARMACEUTICALS, INC., priority 2013, dated 2017)",
  "molecules": {"B1": {"name": "H1H6958N2-DM1: anti-PRLR antibody H1H6958N2 conjugated to DM1 through an SMCC linker (conjugate)", "VH": "QVQLVESGGGVVQPGRSLRLSCGASGFTFRNYGMQWVRQGPGKGLEWVTLISFDGNDKYYADSVKGRFTISRDNSKNTLFLQMNSLRTEDTAVYYCARGGDFDYWGQGTLVTVSS", "VL": "DIQMTQSPSSLSASVGDRVTITCRASQDIRKDLGWYQQKPGKAPKRLIYAASSLHSGVPSRFSGSGSGTEFTLTISSLQPEDFATYYCLQHNSYPMYTFGQGTKLEIK"}, "B2": {"name": "H1H6958N2: human IgG1 Fc form of H2M6958N2; anti-PRLR, receptor blocking; HCVR/LCVR SEQ ID NOs 290/298 (antibody, V domains shown)", "VH": "B1 VH", "VL": "B1 VL", "modifications": "human IgG1 Fc"}, "B3": {"name": "H1H6953N-DM1 (conjugate)", "VH": "EVQLLESGGGLVQPGGTLRLSCAASGFTFSAYAMSWVRQAPGKGLEWVSSINVRAGDTYYADSVKGRFTISRDNSKNTLFLLMNSLRAEDTAAYYCAKARYSSNWGFDFWGQGTLVTVSS", "VL": "DIVMTQSPDSLTVSLGARTTINCQSSQTILHSSNNHNYLAWYQQKPGLPPKLLIYWSSTRESGVPDRFSGSGSGTDFTLTISSLQAEDVAIYYCQQYSNTPYTFGQGTKLEIN"}, "B4": {"name": "H1H6953N: human IgG1 Fc form of H1M6953N; anti-PRLR; HCVR/LCVR SEQ ID NOs 274/282 (antibody, V domains shown)", "VH": "B3 VH", "VL": "B3 VL", "modifications": "human IgG1 Fc"}, "B5": {"name": "H1H6765P: anti-PRLR antibody, human IgG1 Fc; HCVR/LCVR SEQ ID NOs 18/26 (antibody, V domains shown)", "VH": "EVQLVESGGGVVRPGGSLRLSCVGSGFSFDDHGMNWVRQGPGKGLEWVSGFNWNGGSTNYAESVKGRFTISRDNARNSLFLQMNSLRAEDTALYYCVRGRSGWFNDAFDVWGPGTMVTVSS", "VL": "EIVLTQSPGTLSLSPGERATLSCRASQTINSNYLAWYRQKPGQTPRLLIYGTSSRATGIPDRFSGSGSGTDFSLTISRLEPEDFAVFYCQQYAGLPTFGPGTKVDIK", "modifications": "human IgG1 Fc"}},
  "key": {"PC3 cells": {"system": "PC3 cells", "experiment": "Cell viability (cell kill) assay", "type": "cell-based", "in_short": "(§1)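 PC3 and PC3/hPRLR (lipofection-generated, FACS-enriched for PRLR) cells exposed 3 days to anti-PRLR ADCs or free DM1-SMe, 500 nM to 5 pM. Viability by CCK8 OD450, digitonin background subtracted, as % of untreated; IC50 from four-parameter fit of 10-point curves.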"}, "PC3/hPRLR cells": {"system": "PC3/hPRLR cells", "experiment": "Cell viability (cell kill) assay", "type": "cell-based, human", "in_short": "as §1"}, "[1]": {"system": "MCF7/hPRLR (MCF7/PRLR) cells", "experiment": "Cell viability (cell kill) assay, nuclear counts", "type": "cell-based, human", "in_short": "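Anti-PRLR ADCs or free DM1-SMe were added at 500 nM to 5 pM final to cells seeded overnight and were incubated 3 days. MCF7 lines were fixed with 4% formaldehyde plus Hoechst 33342, and nuclei were counted by imaging, with digitonin […] background subtracted. Viability was expressed as % of untreated cells, and IC50 was obtained from a 4-parameter fit of a 10-point curve.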"}, "T47D cells": {"system": "T47D cells", "experiment": "Cell viability (cell kill) assay", "type": "cell-based", "in_short": "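T47D cells grown overnight, then exposed 3 days to anti-PRLR ADCs (DM1 via non-cleavable SMCC linker, or other maytansinoid toxins) or free DM1-SMe, 500 nM to 5 pM. Viability by CCK8 OD450, digitonin background subtracted, as % of untreated; IC50 from 10-point four-parameter fit. PRL (15 nM) co-incubation tested separately.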"}, "MCF7/PRLR tumors": {"system": "MCF7/PRLR tumors", "experiment": "Tumor growth inhibition in xenograft-bearing mice", "type": "in vivo, NCr nude mice", "conditions": "for effect on MCF7/PRLR tumor growth: multi-dose trial 1, 5 and 15 mg/kg", "description": "(§2) Briefly, 20×10^6 MCF7/PRLR cells (ATCC HTB-22 transfected with full length hPRLR as previously described) were implanted subcutaneously into the left mammary fat pad of female NCr nude mice. In other studies, 10×10^6 PC3/PRLR (ATCC CRL-1435 transfected with full length hPRLR as previously described) were implanted subcutaneously into the left flank of male SCID mice. Additionally, 10×10^6 parental T47D (ATCC HTB-133) or […] T47D#11 cells (ATCC HTB-133 serially passaged in vivo as described below) were subcutaneously implanted into the left flank of female CB17 SCID mice. All mice were obtained from Taconic (Hudson, N.Y.). Each bolus of cells was supplemented with a 90-day estrogen release pellet (1.7 mg/pellet; Innovative Research America, Sarasota Fla.). Once tumors had reached an average volume of 250 mm^3, mice were randomized into groups of seven and dosed with anti-PRLR antibody-drug conjugates of the invention or control reagents. Control reagents included PBS vehicle, free methyl-disulfide DM1 (DM1-SMe) and isotype Control 1-DM1.\n(§3) In multi-dose studies, mice were dosed once a week for a total of three weeks with tumor volumes and body weights being monitored twice weekly throughout the study. Test ADCs were dosed at 5 and/or 15 mg/kg in the multi-dose studies. In single-dose studies, mice received a single dose of test ADC, and tumor volumes and body weights were monitored twice weekly throughout the study. Test ADCs were dosed at 1, 2.5, 5, and 15 mg/kg in the single-dose studies. Average tumor size as well as tumor growth inhibition relative to the vehicle treated group were calculated for each group. Tumors were measured with calipers twice a week until the average size of the vehicle group reached 1000 mm^3. Tumor size was calculated using the formula (length×width^2)/2. Tumor growth inhibition was calculated according to the following formula: (1−((Tfinal−Tinitial)/(Cfinal−Cinitial)))*100, where T (treated group) and C (control group) represent the mean tumor mass on the day the vehicle group reached 1000 mm^3. […] Results are summarized in Tables 21-25 (multi-dose) and Table 26 (single dose). (NT=not tested in the particular experiment shown)."}, "PC3/PRLR tumors": {"system": "PC3/PRLR tumors", "experiment": "Tumor growth inhibition in xenograft-bearing mice", "type": "in vivo, SCID mice", "conditions": "for Average Tumor Growth Inhibition (%): SCID mice; for effect on PC3/PRLR tumor growth: multi-dose, especially at 15 mg/kg", "description": "as §2, §3"}, "[2]": {"conditions": "T47D, Table 12, 3 days, read-out: IC50"}},
  "note": "Where two headings read alike, the source gives them in different places.",
  "data": [
    {"molecule": "B1", "values": [
      {"measurement": "% Kill", "setting": "PC3 cells; Table 11, 3 days", "result": 83, "unit": "%"},
      {"measurement": "IC50", "setting": "PC3 cells; Table 11, 3 days", "result": 150, "unit": "nM"},
      {"measurement": "% Kill", "setting": "PC3/hPRLR cells; PC3/PRLR, Table 11, 3 days", "result": 83, "unit": "%"},
      {"measurement": "IC50", "setting": "PC3/hPRLR cells; PC3/PRLR, Table 11, 3 days", "result": 0.43, "unit": "nM"},
      {"measurement": "% Kill", "setting": "PC3/hPRLR cells; PC3/hPRLR, Table 18", "result": 79, "unit": "%"},
      {"measurement": "IC50", "setting": "PC3/hPRLR cells; PC3/hPRLR, Table 18", "result": 0.5, "unit": "nM"},
      {"measurement": "% Kill", "setting": "[1]; Table 12, 3 days", "result": 77, "unit": "%"},
      {"measurement": "IC50", "setting": "[1]; Table 12, 3 days", "result": 0.19, "unit": "nM"},
      {"measurement": "% Kill", "setting": "[1]; Table 18", "result": 83, "unit": "%"},
      {"measurement": "IC50", "setting": "[1]; Table 18", "result": 0.2, "unit": "nM"},
      {"measurement": "% Kill", "setting": "[1]; Table 20", "result": 80, "unit": "%"},
      {"measurement": "IC50", "setting": "[1]; Table 20", "result": 0.2, "unit": "nM"},
      {"measurement": "% Kill", "setting": "T47D cells; T47D, Table 12, 3 days", "result": 71, "unit": "%"},
      {"measurement": "IC50", "setting": "T47D cells; [2]", "result": 1.34, "unit": "nM"},
      {"measurement": "% Kill", "setting": "T47D cells; T47D, Table 13, + 15 nM PRL", "result": 100, "unit": "%"},
      {"measurement": "IC50", "setting": "T47D cells; T47D, Table 13, + 15 nM PRL, read-out: IC50", "result": 3, "unit": "nM"},
      {"measurement": "% Kill", "setting": "T47D cells; T47D, Table 13, without PRL", "result": 100, "unit": "%"},
      {"measurement": "IC50", "setting": "T47D cells; T47D, Table 13, without PRL, read-out: IC50", "result": 1, "unit": "nM"},
      {"measurement": "% Kill", "setting": "T47D cells; T47D, Table 19", "result": 100, "unit": "%"},
      {"measurement": "IC50", "setting": "T47D cells; T47D, Table 19, read-out: IC50", "result": 2, "unit": "nM"},
      {"measurement": "effect on MCF7/PRLR tumor growth", "setting": "MCF7/PRLR tumors", "result": "potently inhibited MCF7/PRLR tumor growth"},
      {"measurement": "effect on tumor volume relative to vehicle control tumors", "setting": "MCF7/PRLR tumors; single dose, 1 mg/kg", "result": "significant decrease in tumor volume"},
      {"measurement": "tumor growth inhibition", "setting": "MCF7/PRLR tumors; single dose, all doses above 1 mg/kg tested (2.5, 5, 15 mg/kg)", "result": "> 100", "unit": "%"},
      {"measurement": "Average Tumor Growth Inhibition (%)", "setting": "PC3/PRLR tumors; PC3/PRLR tumors TRIAL #1, multi-dose 5 mg/kg, Day 63", "result": 5, "unit": "%"},
      {"measurement": "effect on PC3/PRLR tumor growth", "setting": "PC3/PRLR tumors", "result": "demonstrated inhibition of tumor growth"}
    ]},
    {"molecule": "B2", "values": [
      {"measurement": "Average Tumor Growth Inhibition (%)", "setting": "MCF7/PRLR tumors; MCF7/PRLR tumors, single dose 15 mg/kg, Day 55", "result": 1, "unit": "%"}
    ]},
    {"molecule": "B3", "values": [
      {"measurement": "% Kill", "setting": "PC3 cells; Table 15", "result": 80, "unit": "%"},
      {"measurement": "IC50", "setting": "PC3 cells; Table 15", "result": 100, "unit": "nM"},
      {"measurement": "% Kill", "setting": "PC3/hPRLR cells; PC3/PRLR, Table 11, 3 days", "result": 67, "unit": "%"},
      {"measurement": "IC50", "setting": "PC3/hPRLR cells; PC3/PRLR, Table 11, 3 days", "result": 0.86, "unit": "nM"},
      {"measurement": "% Kill", "setting": "PC3/hPRLR cells; PC3/PRLR, Table 15", "result": 76, "unit": "%"},
      {"measurement": "IC50", "setting": "PC3/hPRLR cells; PC3/PRLR, Table 15", "result": 0.68, "unit": "nM"},
      {"measurement": "% Kill", "setting": "[1]; Table 12, 3 days", "result": 76, "unit": "%"},
      {"measurement": "IC50", "setting": "[1]; Table 12, 3 days", "result": 0.29, "unit": "nM"},
      {"measurement": "% Kill", "setting": "[1]; Table 17", "result": 76, "unit": "%"},
      {"measurement": "IC50", "setting": "[1]; Table 17", "result": 0.33, "unit": "nM"},
      {"measurement": "IC50", "setting": "T47D cells; T47D cells (PRLR 12× above background), 3 days, read-out: IC50, cell viability", "result": 1.3, "unit": "nM"},
      {"measurement": "% Kill", "setting": "T47D cells; T47D, Table 12, 3 days", "result": 79, "unit": "%"},
      {"measurement": "IC50", "setting": "T47D cells; [2]", "result": 1.64, "unit": "nM"},
      {"measurement": "effect on MCF7/PRLR tumor growth", "setting": "MCF7/PRLR tumors", "result": "potently inhibited MCF7/PRLR tumor growth"},
      {"measurement": "effect on PC3/PRLR tumor growth", "setting": "PC3/PRLR tumors", "result": "demonstrated inhibition of tumor growth"}
    ]},
    {"molecule": "B4", "values": [
      {"measurement": "Average Tumor Growth Inhibition (%)", "setting": "MCF7/PRLR tumors; MCF7/PRLR tumors TRIAL #1, multi-dose 15 mg/kg, NCr Nude mice, Day 52", "result": 79, "unit": "%"}
    ]},
    {"molecule": "B5", "values": [
      {"measurement": "Average Tumor Growth Inhibition (%)", "setting": "PC3/PRLR tumors; PC3/PRLR tumors TRIAL #2, multi-dose 15 mg/kg, Day 55", "result": 1, "unit": "%"}
    ]}
  ]
}
